Measurements published in the supplement of paper PMC7125110.
± gives the standard error. Variants at the floor of the assay were thinned out.

B1: glmS ribozyme (parent)
chain: AUAAAAGCGCCAGAACUACAGAAAUGUAGUUGACGAGGAGGAGGUUUAUCGAAUUUUCGGCGGAUGCCUCCAAA

Key:
Settings in all cases: with glucosamine-6-phosphate
glucosamine-6-phosphate [1] = variants of: B1; experiment: self-cleavage kobs at 40 uM GlcN6P; higher = faster cleavage; RNA array
How it was run: (§1)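 Glucosamine-6-phosphate in HEPES/KCl/Mg(OAc)2 buffer, at 40 μM to 10 mM, was flowed over barcoded ribozyme variants transcribed in situ by E. coli RNA polymerase on sequenced MiSeq chips. Tracking was through a hybridised Cy3 probe at 37 °C. kobs, kcat and KM came from exponential decay fits and weighted Michaelis–Menten fits of normalised per-tile medians.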

glucosamine-6-phosphate [2] = variants of: B1; experiment: self-cleavage kobs at 640 uM GlcN6P; higher = faster cleavage; RNA array
How it was run: as §1

glucosamine-6-phosphate [3] = variants of: B1; experiment: self-cleavage kobs at 10000 uM GlcN6P; higher = faster cleavage; RNA array
How it was run: as §1

glucosamine-6-phosphate [4] = variants of: B1; experiment: self-cleavage kobs at 160 uM GlcN6P; higher = faster cleavage; RNA array
How it was run: as §1

glucosamine-6-phosphate [5] = variants of: B1; experiment: self-cleavage kobs at 2500 uM GlcN6P; higher = faster cleavage; RNA array
How it was run: as §1

Variant | self-cleavage kobs at 40 uM GlcN6P (glucosamine-6-phosphate [1]) [s⁻¹] | self-cleavage kobs at 640 uM GlcN6P (glucosamine-6-phosphate [2]) [s⁻¹] | self-cleavage kobs at 10000 uM GlcN6P (glucosamine-6-phosphate [3]) [s⁻¹] | self-cleavage kobs at 160 uM GlcN6P (glucosamine-6-phosphate [4]) [s⁻¹] | self-cleavage kobs at 2500 uM GlcN6P (glucosamine-6-phosphate [5]) [s⁻¹]
A6C C61G | < 1e-05 | < 1e-05 | < 1e-05 |  | 
A33U G43U | < 1e-05 |  | < 1e-05 | < 1e-05 | < 1e-05
A14U A15G G43C | < 1e-05 | < 1e-05 |  |  | < 1e-05
A33G A36G A39C U45A | < 1e-05 |  | < 1e-05 | < 1e-05 | < 1e-05
C11A G59A G60A A64U | < 1e-05 |  |  |  | 
A12U G32U C50G | 7.78e-05 ± 3.4e-05 |  |  |  | 
G38A U47C | < 1e-05 |  |  | < 1e-05 | < 1e-05
G38U C58U | < 1e-05 |  | < 1e-05 |  | < 1e-05
A6G C16U U30A G43U G62U C70A | < 1e-05 |  | < 1e-05 |  | 
G9C A53U | < 1e-05 | < 1e-05 | < 1e-05 | < 1e-05 | < 1e-05
A42C C61G | < 1e-05 | < 1e-05 |  | < 1e-05 | < 1e-05
G38C A39U G60U | < 1e-05 |  | < 1e-05 |  | < 1e-05
A15G U30G C70U | 0.000184 ± 5.6e-05 | 0.00102 ± 0.00026 | 0.0318 ± 0.013 |  | 
G29U A42G U56C G63A | < 1e-05 |  | < 1e-05 |  | 
C61G G63A | < 1e-05 |  | < 1e-05 | < 1e-05 | 
G7U G62C | < 1e-05 | < 1e-05 | < 1e-05 | < 1e-05 | < 1e-05
G38A G51U A52U | < 1e-05 |  | < 1e-05 |  | 
C16A U30A A33G U55C | < 1e-05 |  |  |  | 
A48U G63C | < 1e-05 | < 1e-05 | < 1e-05 | < 1e-05 | < 1e-05
A36G C67U | < 1e-05 |  |  |  | 
G41U G43U | < 1e-05 | < 1e-05 | < 1e-05 |  | < 1e-05
G44A A52G | < 1e-05 |  |  | < 1e-05 | 
C16U A33G | < 1e-05 |  | < 1e-05 |  | 
A53G C68U | 0.000296 ± 4.8e-05 | 0.00399 ± 0.00064 | 0.00554 ± 0.0012 | 0.00034 ± 7.7e-05 | 0.00239 ± 0.00052

Variant | self-cleavage kobs at 40 uM GlcN6P (glucosamine-6-phosphate [1]) [s⁻¹] | self-cleavage kobs at 640 uM GlcN6P (glucosamine-6-phosphate [2]) [s⁻¹] | self-cleavage kobs at 10000 uM GlcN6P (glucosamine-6-phosphate [3]) [s⁻¹] | self-cleavage kobs at 160 uM GlcN6P (glucosamine-6-phosphate [4]) [s⁻¹] | self-cleavage kobs at 2500 uM GlcN6P (glucosamine-6-phosphate [5]) [s⁻¹]
G7U G9C G35C A36U U49A U56A | < 1e-05 |  |  |  | 
C8U U55A C58A | < 1e-05 | < 1e-05 | < 1e-05 |  | 
A39C G44A G60U C68U | < 1e-05 |  |  |  | 
A33C G38A | < 1e-05 | < 1e-05 | < 1e-05 | < 1e-05 | < 1e-05
G7A G38U C58A | < 1e-05 |  | < 1e-05 |  | 
C10A A14C U45C C68U | < 1e-05 | < 1e-05 | < 1e-05 |  | < 1e-05
C34U U65A C67G | 0.000176 ± 7.1e-05 |  |  |  | 
A36C U49G A53G | 4.33e-05 ± 1.4e-05 |  | 0.00107 ± 0.00018 |  | 
A6C G51U U56A | < 1e-05 |  |  |  | 
U46A G59U | < 1e-05 | < 1e-05 | < 1e-05 | < 1e-05 | 
A33U A48G A53U U57C | < 1e-05 |  | < 1e-05 |  | 
A36G G44U U45C G51A G63C U69G C70G | < 1e-05 |  | < 1e-05 |  | 
G37C A64C C68U | < 1e-05 |  | < 1e-05 |  | < 1e-05
U56C C61U | < 1e-05 | < 1e-05 | < 1e-05 | < 1e-05 | < 1e-05
U31C G40A G59U | < 1e-05 | < 1e-05 | < 1e-05 |  | < 1e-05
A6G A33G A48G A64U | < 1e-05 |  | < 1e-05 |  | 
G9A A15G U30C | < 1e-05 |  |  |  | 
U45C G60U | < 1e-05 | < 1e-05 | < 1e-05 | < 1e-05 | 
U30A A39U G51A A64G | < 1e-05 |  | < 1e-05 |  | 
C11G A15G A53C | < 1e-05 |  |  |  | < 1e-05
G29A C34U U47G A48G C67G | 0.000265 ± 0.0001 |  | 7.2e-05 ± 3.2e-05 |  | 
C50G A53C C67G | 7.76e-05 ± 2.5e-05 | 0.000198 ± 6.2e-05 | 5.98e-05 ± 1.9e-05 | 0.000121 ± 2.6e-05 | 0.000336 ± 0.00012
U31A U49A C61U C70G | < 1e-05 |  |  |  | 
